Data as given in paper doi:10.1101/2021.11.29.470395 (bioRxiv, 2021).

Experiments:
[1] = target: the molecule itself; assay: right angle light scattering at 350 nm; full-length SaFtsZf (49 µM) or EcFtsZ (25 µM), 1 mM GTP with or without BeF3-, 10 mM MgCl2; MES assembly buffer, 25 °C
[2] = target: the molecule itself; assay: right angle light scattering at 350 nm

B1: full-length FtsZ from E. coli (natural protein, Escherichia coli, UniProt P0A9A6 1-383, looked up)
chain: MFEPMELTNDAVIKVIGVGGGGGNAVEHMVRERIEGVEFFAVNTDAQALRKTAVGQTIQIGSGITKGLGAGANPEVGRNAADEDRDALRAALEGADMVFIAAGMGGGTGTGAAPVVAEVAKDLGILTVAVVTKPFNFEGKKRMAFAEQGITELSKHVDSLITIPNDKLLKVLGRGISLLDAFGAANDVLKGAVQGIAELITRPGLMNVDFADVRTVMSEMGYAMMGSGVASGEDRAEEAAEMAISSPLLEDIDLSGARGVLVNITAGFDLRLDEFETVGNTIRAFASDNATVVIGTSLDPDMNDELRVTVVATGIGMDKRPEITLVTNKQVQQPVMDRYQQHGMAPLTQEQKPVAKVVNDNAPQTAKEPDYLDIPAFLRKQAD
notes: FtsZ of Escherichia coli, full length, wild type protein; also called EcFtsZ; source: purified as described [48]
binding result [1]: binds

B2: full-length FtsZ from methicillin-resistant S. aureus Mu50/ATCC 700699 (natural protein)
chain: MLEFEQGFNHLATLKVIGVGGGGNNAVNRMIDHGMNNVEFIAINTDGQALNLSKAESKIQIGEKLTRGLGAGANPEIGKKAAEESREQIEDAIQGADMVFVTSGMGGGTGTGAAPVVAKIAKEMGALTVGVVTRPFSFEGRKRQTQAAAGVEAMKAAVDTLIVIPNDRLLDIVDKSTPMMEAFKEADNVLRQGVQGISDLIAVSGEVNLDFADVKTIMSNQGSALMGIGVSSGENRAVEAAKKAISSPLLETSIVGAQGVLMNITGGESLSLFEAQEAADIVQDAADEDVNMIFGTVINPELQDEIVVTVIATGFDDKPTSHGRKSGSTGFGTSVNTSSNATSKDESFTSNSSNAQATDSVSERTHTTKEDDIPSFIRNREERRSRRTRR
binding result [2]: binds
